Data from the DeepSol protein solubility set.

Assay: soluble on expression in E. coli; label from the status in PepcDB or PDB records

Row | Sequence | soluble on expression in E. coli
1 | MSLTPPLAPKTVAALHRLGIRTLEELRQNGSVKAFLLLKASGLTLTKSTLWQLESLLDGTPPQEMSQAHKARLLAELKNHPPVAAFPPQEEMEHFMCEALRQAEQSSADGEIPVGAVIVSDGKIIASAHNTCIADCNVSRHAEINALAQAGREIQNYRLDGCDIYITLEPCAMCASALIQARIRRVIYGAAEPKTGAAGSIVNLFADKRLNTHTAIRGGILQEECRAVLSRFFQNKREGHHHHHH | soluble
2 | MSLTALYVQNKINGKIILPFSHSMTNVLRLNRSYGRTMLISNTYNQHFPQLTQEQLARNATKKVICGMSGGVDSSVSAFILQQQGYQVEGLFMKNWEEDDDTDYCTAAADLADAQAVCDKLGIKLHKINFAAEYWDNVFEHFLTEYKAGRTPNPDILCNKEIKFKAFLEYAAEDLGADYIATGHYVRRAGDNENAKLLRGLDPNKDQSYFLYTLSHKQVGQSLFPVGEIEKPIVRAIAEDLGLITAKKKDSTGICFIGERKFKDFLARYLPAQPGNIRTVDDEIIGRHDGLMYHTLGQRKGLGIGGLKNAGDEAWYVVDKDVENNELIVAQGHDHPRLFSKGLIASQLHWVDREPIRESLRCTVKTRYRQQDIPCVIEPIDDETIRVIFDEPQSAVTPGQSAVFYLGEVCLGGGIIAERIEGHHHHHH | soluble
3 | MQSRQRLLISVLAAGESRRFQGAKLAQSLATSTSEDRGQSLLQRHIACLANFIVSPNDRRESLGALDAELLVVIGAHQTLLRPQLEALGAVKLTLLDNPHWRTGLASSLGVAAAYAKVHQFDGMLLTLADQVALTLNDYRQLIETWQNCRKSVAAHYSSQIGELDELGAPAIFNASILDSLTDLTGDRGAKSILKQLAYVGELEAVALPNAAIDIDTKADLALWLALKELEHHHHHH | not soluble
4 | GPGSMNVCSNTTKDPLTLMAMWGSMKGYNPEQGFSFEGPEKRLEVILRSTLETHVDGLRSLDDSVWSGVVGSLNAQIVSRESNEYINSYVLTESSLFVMKNRIILITCGTTTLLNSIPNILEAISAVRGELEWVSFMHKNYSFPWMQKGPHTSLADEFATLKQHFPTGKPYIFGPVDSDHYFLFCYDDIIRPCSSEDDTQLSMTMYGLDKEQTKYWFRDRFISTSAETAAIRAATHLDRVVDGTWTLHDLQFEPCGYSINAIRDEEYQTMHITPEDHCSFASYETNSRATNYSDRMKKVLGVFRPQRFTVIVFLDPESPVGKAYNEGKGIGVEPEYYPEYSLLHRTTNEFAPGYVAMKINYVRTAAVEETDAAVGGAEPGAKSGPD | not soluble
